Values joined by “and” are separate entries in the source; they are usually repeats but may differ in a detail not shown here. Equal entries are not always repeated.
B1: N-WASP GBD GBD, O00401 (protein)
chain: KRLTKADIGTPSNFQHIGHVGWDPNTGFDLNNLDPELKNLFDMCGISEAQLKDRETSKVIYDFIEKTGGVEAVKNELRR
B2: IRTKS SH3 SH3, Q9UHR4 (protein)
chain: LNMMKKQKVKTIFPHTAGSNKTLLSFAQGDVITLLIPEEKDGWLYGEHDVSKARGWFPSSYTKLLEENET

Experiments:
[1] = molecular target: EspFU R475 R475 (fifth 47-residue repeat) (Escherichia coli O157:H7), P0DJ88; assay: ITC
[2] = molecular target: EspFU R2 20-residue peptide from second repeat (Escherichia coli O157:H7), P0DJ88; assay: ITC

Binder | Kd [1] | Kd [2] [nM]
B1 | 40 nM and 70 nM | 
B2 |  | 1100

Reference: paper PMC3472031
